The source of these data is US20210395725A1.

The target in test [1] is human placental laminin (human). Briefly: HEK293-6E cell display flow cytometry; 500 nM laminin-biotin + streptavidin-Alexa Fluor 647; secondary only 4.11. Background: In flow cytometry, cells or beads pass a laser one at a time.
The target of another test is BSA (bovine) (UniProt P02769). Kind of test: ELISA; BSA as control antigen, neat eluted His-tagged protein, anti-pentaHis-HRP. (ELISA stands for enzyme-linked immunosorbent assay.)
Test [2] has as its target human placental laminin (human). Kind of test: bead flow cytometry; EVs on CD9+ capture beads, 5 µg/mL biotinylated laminin + neutravidin-PE; with competition of 3-fold molar excess of unlabelled laminin (15 µg/mL).
Test [3] shares this target. Kind of test: bead flow cytometry; EVs on CD9+ capture beads, 5 µg/mL biotinylated laminin + neutravidin-PE; without competition.
Test [4] shares this target. Briefly: HEK293-6E cell display flow cytometry; 500 nM laminin-biotin + streptavidin-Alexa Fluor 647; secondary only 4.17.
Test [5] shares this target. Kind of test: HEK293-6E cell display flow cytometry; 500 nM laminin-biotin + streptavidin-Alexa Fluor 647; secondary only 6.09.
Test [6] has the same target. Briefly: HEK293-6E cell display flow cytometry; 500 nM laminin-biotin + streptavidin-Alexa Fluor 647; secondary only 1.77.
Test [7] shares this target. Briefly: HEK293-6E cell display flow cytometry; 500 nM laminin-biotin + streptavidin-Alexa Fluor 647; secondary only 5.57.
Test [8] shares this target. Briefly: HEK293-6E cell display flow cytometry; 500 nM laminin-biotin + streptavidin-Alexa Fluor 647; secondary only 3.28.

Substitutions are numbered along the chain they refer to.

Chain of BSA (bovine) (P02769 25-607 limits assumed): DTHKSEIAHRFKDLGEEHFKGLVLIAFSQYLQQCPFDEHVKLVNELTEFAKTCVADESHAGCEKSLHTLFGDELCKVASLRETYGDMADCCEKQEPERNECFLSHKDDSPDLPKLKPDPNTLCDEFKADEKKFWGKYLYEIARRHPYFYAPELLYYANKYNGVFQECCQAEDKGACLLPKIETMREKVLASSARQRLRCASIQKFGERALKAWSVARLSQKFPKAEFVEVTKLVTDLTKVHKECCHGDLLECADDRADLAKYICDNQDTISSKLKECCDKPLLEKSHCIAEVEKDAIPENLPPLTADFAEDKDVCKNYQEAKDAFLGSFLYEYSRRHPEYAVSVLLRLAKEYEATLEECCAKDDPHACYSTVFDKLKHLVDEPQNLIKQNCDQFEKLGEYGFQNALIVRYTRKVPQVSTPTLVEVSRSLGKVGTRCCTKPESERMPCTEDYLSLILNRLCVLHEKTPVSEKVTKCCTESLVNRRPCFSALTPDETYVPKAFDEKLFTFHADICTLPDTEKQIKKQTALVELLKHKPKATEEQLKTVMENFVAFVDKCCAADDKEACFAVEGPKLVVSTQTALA

B1: laminin-binding CD81 LEL mutant 81_L17 (designed binder)
chain: FVNKDQIAKDVKQFYDQCLRHACSGLSGRNAKACVKTFHETLDCCGSSTIKHKTLCVLIKNLCPSGSNIISNLFKEDCHQKIDDLFSGK
For B1, the % antigen-positive cells in [1] amounted to 28.1%.

B2: laminin-binding CD81 LEL mutant L3B_LU1_2 (designed binder)
chain: FVNKDQIAKDVKQFYDQCLKYACKQGDWENAKACVKTFHETLDCCGSSTVANMTRCVLPANLCPSGSNIISNLFKEDCHQKIDDLFSGK
As for B2, the A450/620 (average) in the test with BSA (bovine) is 0.021.

B3: wild-type CD81-eGFP on recombinant EVs (protein, not shown: large carriers)
chain: MGVEGCTKCIKYLLFVFNFVFWLAGGVILGVALWLRHDPQTTNLLYLELGDKAPNTFYVGIYILIAVGAVMMFVGFLGCYGAIQESQCLLGTFFTCLVILFACEVAAGIWGFVNKDQIAKDVKQFYDQALQQAVVDDDANNAKAVVKTFHETLDCCGSSTLTALTTSVLKNNLCPSGSNIISNLFKEDCHQKIDDLFSGKLYLIGIAAIVVAVIMIFEMILSMVLCCGIRNSSVY
B3: in test [2], the Mean 561 was found to be 23900, the Mean 561 - BG was 18700 and the ratio 488/561 was found to be 0.248. Further, in [3], the Mean 561 came to 20200, the Mean 561 - BG came out at 14800 and the ratio 488/561 worked out at 0.21.

B4: laminin-binding CD81 LEL mutant 81_L13 (designed binder)
chain: FVNKDQIAKDVKQFYDQCLSWACNRKYEPNAKACVKTFHETLDCCGSSTKANYTHCVLEMNLCPSGSNIISNLFKEDCHQKIDDLFSGK
Take B4: in [4], the % antigen-positive cells was found to be 30.8%.

B5: laminin-binding CD81 LEL mutant L2B_LU1 (designed binder)
chain: FVNKDQIAKDVKQFYDQALVFCCFGGHANNACAVVKTFHETLDCCGSSTHPYKTKCVLQRNLCPSGSNIISNLFKEDCHQKIDDLFSGK
On to B5, for which the % antigen-positive cells in [5] was 54.2%.

B6: laminin-binding CD81 LEL mutant L2B_LU1_1 (designed binder)
chain: FVNKDQIAKDVKQFYDQALWKCCNLSQANNACAVVKTFHETLDCCGSSTYLCATYCVLWPNLCPSGSNIISNLFKEDCHQKIDDLFSGK
Regarding B6, in [6], the % antigen-positive cells is 20.1%.

B7: laminin-binding CD81 LEL mutant L3A_LU1 (designed binder)
chain: FVNKDQIAKDVKQFYDQCLLWACSKRYKYNAKACVKTFHETLDCCGSSTMGNLTECVLIENLCPSGSNIISNLFKEDCHQKIDDLFSGK
The molecule B7 yielded an A450/620 (average) with BSA (bovine) of 0.016.

B8: laminin-binding CD81 LEL mutant L2A_LU1_1 (designed binder)
chain: FVNKDQIAKDVKQFYDQALMICCHRHYANNACAVVKTFHETLDCCGSSTPSSTTPCVLQNNLCPSGSNIISNLFKEDCHQKIDDLFSGK
With B8, in [7], the % antigen-positive cells is 37.9%.

B9: laminin-binding CD81 LEL mutant 81_L21 (designed binder)
chain: B8 chain with M20F, H24F, H26R, P50R, S51N, S52N, T53E, P55A, Q59A, N60K
Regarding B9, the % antigen-positive cells in [8] was determined as 37.1%.

B10: laminin-binding CD81 LEL mutant L2A_LU1 (designed binder)
chain: FVNKDQIAKDVKQFYDQALRECCNTFDANNACAVVKTFHETLDCCGSSTTHSSTGCVLFFNLCPSGSNIISNLFKEDCHQKIDDLFSGK
On to B10, for which the A450/620 (average) with BSA (bovine) was determined as 0.045.
